Target: p53 WT (UniProt P04637 P04637:1-393)
Experiment: EMSA; GST-p53 purified from bacteria
Details: tags: GST; chain copies: 4; label: biotin
Method: For supershift assay, anti-p53 antibodies were added into the cell nuclear extract mixed with the biotin-labeled probes and the mixture were incubated with for 1 hour at room temperature before loading into 6% of non-denatured polyacrylamide gel.

p53 WT, sequence (P04637 whole entry, one chain of several): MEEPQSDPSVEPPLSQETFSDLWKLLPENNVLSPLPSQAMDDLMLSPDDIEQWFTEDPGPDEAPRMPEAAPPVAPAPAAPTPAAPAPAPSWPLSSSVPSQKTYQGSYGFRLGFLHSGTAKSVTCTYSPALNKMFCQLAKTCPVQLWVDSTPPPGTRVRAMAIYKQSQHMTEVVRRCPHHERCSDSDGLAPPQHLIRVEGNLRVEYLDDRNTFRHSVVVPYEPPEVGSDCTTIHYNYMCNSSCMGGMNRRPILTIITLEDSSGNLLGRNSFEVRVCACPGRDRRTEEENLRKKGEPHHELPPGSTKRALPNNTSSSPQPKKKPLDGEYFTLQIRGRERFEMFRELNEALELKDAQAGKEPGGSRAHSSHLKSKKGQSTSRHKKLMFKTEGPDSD

B1: CTNNB1 probe 1 (MP53BS) (dsDNA)
DNA 1: GCCCCCTCGCGCCCCGCCCCTTGTC
DNA 2: GACAAGGGGCGGGGCGCGAGGGGGC
B1: no binding.
